In US6790831B2, “Systemic carnitine deficiency gene and use thereof” (Chugai Seiyaku Kabushiki Kaisha, priority 1998, dated 2004):
Entries after “also recorded” stand apart in the source; their conditions may differ.

Tested on: HEK293 cells
Test: carnitine transporting activity assay of mouse OCTN2 expressed from plasmid DNA in HEK293 cells
Format: cell-based
Details: plasmid DNA expressing the protein introduced into HEK293 cells; Mock = cDNA-non-containing vector; FIG. 3
Description: Another embodiment of the therapeutic drug for systemic carnitine deficiency uses a compound that enhances the activity of the OCTN2 protein as the active ingredient. Such a compound can be screened as follows. For example, a plasmid expressing the OCTN2 protein is constructed, and this is introduced into HEK293 cells by the calcium phosphate method. Radiolabeled carnitine and a test compound are added to this transformant and the carnitine transporting activity into the cells is determined. A compound that can enhance the carnitine transporting activity is selected by comparing with the activity of the OCTN2 protein in the absence of the test compound. See Japanese Patent Application Hei 9-260972 and Hei 10-156660 for the detailed method.
Next, the effect this mutation has on the carnitine transporting activity was examined. Plasmid DNA expressing wild-type mouse OCTN2, and those expressing mutated OCTN2 were separately introduced into HEK293 cells, and then, carnitine transporting ability was measured similar to the assay of human OCTN2 described in Japanese Patent Application Hei 10-156660 (FIG. 3). […] However, both proteins were confirmed to be expressed at a similar amount by a western blotting using an antibody against the c-myc epitope sequence (NH2—EQKLISEEDL—COOH; SEQ ID NO:26) added to the C terminus (FIG. 4).

Molecule | carnitine transporting activity
wild-type mouse OCTN2: mouse OCTN2 protein, amino acid sequence SEQ ID NO:3, sodium-ion dependent carnitine transporter (protein) MRDYDEVTAFLGEWGPFQRLIFFLLSASIIPNGFNGMSIVFLAGTPEHRCLVPHTVNLSSAWRNHSIPLETKDGRQVPQKCRRYRLATIANFSELGLEPGRDVDLEQLEQESCLDGWEYDKDVFLSTIVTEWDLVCKDDWKAPLTTSLFFVGVLMGSFISGQLSDRFGRKNVLFLTMGMQTGFSFLQVFSVNFEMFTVLFVLVGMGQISNYVAAFVLGTEILSKSIRIIFATLGVCIFYAFGFMVLPLFAYFIRDWRMLLLALTVPGVLCGALWWFIPESPRWLISQGRIKEAEVIIRKAAKINGIVAPSTIFDPSELQDLNSTKPQLHHIYDLIRTRNIRVITIMSIILWLTISVGYFGLSLDTPNLHGDIYVNCFLLAAVEVPAYVLAWLLLQYLPRRYSISAALFLGGSVLLFMQLVPSELFYLSTALVMVGKFGITSAYSMVYVYTAELYPTVVRNMGVGVSSTASRLGSILSPYFVYLGAYDRFLPYILMGSLTILTAILTLFFPESFGVPLPDTIDQMLRVKGIKQWQIQSQTRMQKDGEESPTVLKSTAF | sodium-dependent carnitine transporting activity is seen; also recorded: shows a carnitine transporting activity similar to human OCTN2
mutated OCTN2: jvs mouse OCTN2 in which the 352nd leucine (CTG) is mutated to arginine (CGG) (protein, UniProt Q9Z0E8 1-557, looked up, variant L352R, full-length) MRDYDEVTAFLGEWGPFQRLIFFLLSASIIPNGFNGMSIVFLAGTPEHRCLVPHTVNLSSAWRNHSIPLETKDGRQVPQKCRRYRLATIANFSELGLEPGRDVDLEQLEQESCLDGWEYDKDVFLSTIVTEWDLVCKDDWKAPLTTSLFFVGVLMGSFISGQLSDRFGRKNVLFLTMGMQTGFSFLQVFSVNFEMFTVLFVLVGMGQISNYVAAFVLGTEILSKSIRIIFATLGVCIFYAFGFMVLPLFAYFIRDWRMLLLALTVPGVLCGALWWFIPESPRWLISQGRIKEAEVIIRKAAKINGIVAPSTIFDPSELQDLNSTKPQLHHIYDLIRTRNIRVITIMSIILWRTISVGYFGLSLDTPNLHGDIYVNCFLLAAVEVPAYVLAWLLLQYLPRRYSISAALFLGGSVLLFMQLVPSELFYLSTALVMVGKFGITSAYSMVYVYTAELYPTVVRNMGVGVSSTASRLGSILSPYFVYLGAYDRFLPYILMGSLTILTAILTLFFPESFGVPLPDTIDQMLRVKGIKQWQIQSQTRMQKDGEESPTVLKSTAF | absolutely no activity
